# Reference: publication doi:10.1101/2022.10.19.512833 (bioRxiv, 2022)
# T1: human TSG101 UEV (1-145) domain (human, UniProt Q99816 1-145)
# T1 sequence (looked up): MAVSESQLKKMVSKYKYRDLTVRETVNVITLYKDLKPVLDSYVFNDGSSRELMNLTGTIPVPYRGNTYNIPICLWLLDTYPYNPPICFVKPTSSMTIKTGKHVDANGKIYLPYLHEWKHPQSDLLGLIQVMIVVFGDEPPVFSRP
# Biological target: T1, human TSG101 UEV (1-145) domain
# Experiment: fluorescence polarisation
row,Binder,Kd
1,"APQGLIPTAPPADPAA [GAG (HIV-2) peptide, residues 450-465, unlabeled]",6 µM
2,"LQSRPEPTAPPEESFR (peptide, UniProt P04591 449-464, looked up) [GAG (HIV-1) residues 449-464, unlabeled peptide]",15.3 µM
